Biological target: T1, KAE1;BUD32;CGI121;PCC1 R73D (Arabidopsis thaliana;Arabidopsis …, UniProt O49653;Q94K14;Q6NMZ4;Q8GWD7 1-353;1-226;1-172;1-96, |||R73D)
T1 sequence 1: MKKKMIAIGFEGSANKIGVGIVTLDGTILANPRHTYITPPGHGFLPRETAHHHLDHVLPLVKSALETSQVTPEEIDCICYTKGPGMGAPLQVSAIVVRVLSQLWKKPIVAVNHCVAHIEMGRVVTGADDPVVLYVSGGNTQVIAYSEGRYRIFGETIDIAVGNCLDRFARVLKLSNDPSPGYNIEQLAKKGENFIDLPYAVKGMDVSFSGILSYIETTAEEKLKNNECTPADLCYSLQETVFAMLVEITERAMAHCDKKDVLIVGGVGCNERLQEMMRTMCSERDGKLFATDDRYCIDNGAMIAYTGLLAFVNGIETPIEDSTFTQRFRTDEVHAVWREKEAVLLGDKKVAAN
T1 sequence 2: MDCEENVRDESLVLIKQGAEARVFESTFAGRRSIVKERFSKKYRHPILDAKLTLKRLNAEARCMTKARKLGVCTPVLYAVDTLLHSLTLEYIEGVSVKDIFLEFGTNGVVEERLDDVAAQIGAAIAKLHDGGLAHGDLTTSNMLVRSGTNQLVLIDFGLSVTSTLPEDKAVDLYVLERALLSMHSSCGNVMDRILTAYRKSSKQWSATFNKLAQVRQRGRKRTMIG
T1 sequence 3: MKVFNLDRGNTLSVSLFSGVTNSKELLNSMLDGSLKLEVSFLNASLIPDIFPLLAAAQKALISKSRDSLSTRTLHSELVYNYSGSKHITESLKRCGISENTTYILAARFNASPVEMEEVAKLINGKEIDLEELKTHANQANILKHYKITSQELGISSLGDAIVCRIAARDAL
T1 sequence 4: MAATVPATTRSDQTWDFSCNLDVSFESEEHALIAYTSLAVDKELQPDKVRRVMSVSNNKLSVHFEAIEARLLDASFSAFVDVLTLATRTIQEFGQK
Test: MST; Fig S4 legend gives ~372; MST: 20 mM PBS pH 7.5, 300 mM NaCl, 0.05% Tween 20, 25 C, 50 nM RNA; EMSA: 20 mM Tris-HCl pH 7.5, 300 mM NaCl, 5 mM b-mercaptoethanol, 20% glycerol, agarose gel in Tris-glycine pH 8.0 (8.5 for FAM-RNA), 4 C
Details: protein: recombinant;recombinant;recombinant;recombinant; tags: none (6His on partner PCC1);none (6His on partner CGI121);6His (C-term);6His (C-term); chain copies: 2;2;2;2; label: 5' 6-FAM; tRNA cloverleaf

B1: 5'-6FAM-tRNAArgCCU (structured_RNA)
RNA: GCGCCUGUAGCUCAGUGGAUAGAGCGUCUGUUUCCUAAGCAGAAGGUCGUAGGUUCGACCCCUACCUGGCGCGCCA
- Kd: 353 ± 40 µM

Reference: paper PMC11077089, “Molecular basis of A. thaliana KEOPS complex in biosynthesizing tRNA t6A”
